The target in series [1] is T1, ETS1 x2 (Homo sapiens, UniProt P14921).
T1 sequence: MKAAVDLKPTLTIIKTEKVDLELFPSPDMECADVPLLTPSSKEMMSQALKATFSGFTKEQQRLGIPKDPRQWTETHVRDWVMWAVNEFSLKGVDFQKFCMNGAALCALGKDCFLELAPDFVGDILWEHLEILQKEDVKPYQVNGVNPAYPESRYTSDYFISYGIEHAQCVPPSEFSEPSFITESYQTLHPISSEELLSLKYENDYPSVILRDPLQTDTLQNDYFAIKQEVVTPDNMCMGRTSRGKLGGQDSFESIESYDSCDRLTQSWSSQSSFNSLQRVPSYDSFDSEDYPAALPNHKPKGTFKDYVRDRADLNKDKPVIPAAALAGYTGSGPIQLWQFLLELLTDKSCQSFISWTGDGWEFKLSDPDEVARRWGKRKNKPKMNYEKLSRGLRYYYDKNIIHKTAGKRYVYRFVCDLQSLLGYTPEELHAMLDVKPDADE
As to the kind of experiment: gcPBM; 10 nM ETS1. The conditions noted are these: tags: N-terminal GST (pDEST15), kept (PMC6008103); chain copies: 2; label: surface-attached array probe.

Series [2] has as its target ETS1:RUNX1 (Homo sapiens, UniProt P14921;Q01196 full;full). The series is described as follows: gcPBM; 1 nM ETS1 + 25 nM RUNX1, anti-ETS1 signal, normalised. The conditions noted are these: tags: N-terminal GST (pDEST15), kept (PMC6008103); copies: 1;1; label: surface-attached array probe.

Chain of ETS1:RUNX1 (Q01196 whole entry, one chain of several): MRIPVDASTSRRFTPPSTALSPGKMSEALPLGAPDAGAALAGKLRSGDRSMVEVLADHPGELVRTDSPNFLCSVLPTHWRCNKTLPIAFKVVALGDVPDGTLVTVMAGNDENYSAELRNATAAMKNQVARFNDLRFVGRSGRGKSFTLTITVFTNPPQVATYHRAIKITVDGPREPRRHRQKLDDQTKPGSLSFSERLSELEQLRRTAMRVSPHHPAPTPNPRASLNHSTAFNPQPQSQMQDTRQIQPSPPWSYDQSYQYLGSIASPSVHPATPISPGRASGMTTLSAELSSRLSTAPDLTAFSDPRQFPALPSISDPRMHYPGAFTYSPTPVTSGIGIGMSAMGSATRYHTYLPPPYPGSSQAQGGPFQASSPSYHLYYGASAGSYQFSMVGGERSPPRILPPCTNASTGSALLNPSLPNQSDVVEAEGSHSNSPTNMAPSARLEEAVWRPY

B1: Table S4 A row 1336 (dsDNA)
DNA 1: AGGTCGGAAGCGCTTCTACTGCAGCTCCGGAAAGGG
DNA 2: CCCTTTCCGGAGCTGCAGTAGAAGCGCTTCCGACCT
For the molecule B1, the binding signal in series [1] is 806 PBM fluorescence, median of replicate spots.

B2: Table S2 A row 140 (dsDNA)
DNA 1: AGTTACAGTAAAGGATGTGGTGAAACAGATGTTTAT
DNA 2: ATAAACATCTGTTTCACCACATCCTTTACTGTAACT
As to B2, the binding signal in series [2] is 1480 PBM fluorescence, median of replicate spots.

B3: Table S4 A row 1074 (dsDNA)
DNA 1: CACGCACATCCCCAGTGAGTAACACTTCCTGAGGGC
DNA 2: GCCCTCAGGAAGTGTTACTCACTGGGGATGTGCGTG
In the case of B3, the binding signal in series [1] was 653 PBM fluorescence, median of replicate spots.

B4: Table S2 A row 670 (dsDNA)
DNA 1: TGAGCACAGTATTTCCTGTGGTTTCTATTGCATTTC
DNA 2: GAAATGCAATAGAAACCACAGGAAATACTGTGCTCA
Take B4: the binding signal in series [2] was 1550 PBM fluorescence, median of replicate spots.

B5: Table S2 A row 83 (dsDNA)
DNA 1: GACAGACCTTAGGAAGTCGCGGTTTCATCAGGGCTT
DNA 2: AAGCCCTGATGAAACCGCGACTTCCTAAGGTCTGTC
On to B5, for which the binding signal in series [2] was 1710 PBM fluorescence, median of replicate spots.

B6: Table S2 A row 388 (dsDNA)
DNA 1: GCAGTTTCAAGAGGATGTGGTCTCTTTCACTGCCTG
DNA 2: CAGGCAGTGAAAGAGACCACATCCTCTTGAAACTGC
In the case of B6, the binding signal in series [2] was 1800 PBM fluorescence, median of replicate spots.

B7: Table S4 A row 1719 (dsDNA)
DNA 1: GGACCTACAGGAAGACTGACTAGCTTCCTTCGAGCC
DNA 2: GGCTCGAAGGAAGCTAGTCAGTCTTCCTGTAGGTCC
B7: the binding signal in series [1] is 912 PBM fluorescence, median of replicate spots.

B8: Table S2 A row 712 (dsDNA)
DNA 1: GACTTTTACGGAAATAGCAGTCCAAAACCGCGTCTA
DNA 2: TAGACGCGGTTTTGGACTGCTATTTCCGTAAAAGTC
Regarding B8, the binding signal in series [2] was 1340 PBM fluorescence, median of replicate spots.

B9: Table S4 A row 1968 (dsDNA)
DNA 1: GTGATTGGCAGGATCCTGGTATCCGCTAACAGGTAC
DNA 2: GTACCTGTTAGCGGATACCAGGATCCTGCCAATCAC
With B9, the binding signal in series [1] is 599 PBM fluorescence, median of replicate spots.

B10: Table S2 A row 1129 (dsDNA)
DNA 1: CACTTCCTCCTCGGGGGCCTCAGAAAACCACAGGGC
DNA 2: GCCCTGTGGTTTTCTGAGGCCCCCGAGGAGGAAGTG
Turning to B10, the binding signal in series [2] is 1580 PBM fluorescence, median of replicate spots.

B11: Table S4 A row 1993 (dsDNA)
DNA 1: ATCACGGGGCCCATCCGGGGAGGAAGGCGGCACAGG
DNA 2: CCTGTGCCGCCTTCCTCCCCGGATGGGCCCCGTGAT
B11: the binding signal in series [1] is 950 PBM fluorescence, median of replicate spots.

B12: Table S2 A row 1237 (dsDNA)
DNA 1: AGCCTACATCCTGCACTGCTTAACCACAGCCCGCCT
DNA 2: AGGCGGGCTGTGGTTAAGCAGTGCAGGATGTAGGCT
Consider B12, for which the binding signal in series [2] is 1360 PBM fluorescence, median of replicate spots.

B13: Table S2 A row 378 (dsDNA)
DNA 1: GAAAAAAATGAGCTTCCTTTAACCACAACTGTATTA
DNA 2: TAATACAGTTGTGGTTAAAGGAAGCTCATTTTTTTC
B13: the binding signal in series [2] was 1320 PBM fluorescence, median of replicate spots.

B14: Table S2 A row 963 (dsDNA)
DNA 1: GGGTCGCGGCCTTCCGGCGAACGCGGTTACCGTGGA
DNA 2: TCCACGGTAACCGCGTTCGCCGGAAGGCCGCGACCC
As for B14, the binding signal in series [2] was 1180 PBM fluorescence, median of replicate spots.

B15: Table S4 A row 258 (dsDNA)
DNA 1: GCTTATCACTGAAGGAAACAGGATGCTAAATGTACG
DNA 2: CGTACATTTAGCATCCTGTTTCCTTCAGTGATAAGC
With B15, in series [1], the binding signal is 844 PBM fluorescence, median of replicate spots.

B16: Table S2 A row 1399 (dsDNA)
DNA 1: TCGCACCGGAACCCCTTGGCGGATTATGTGGGTTCC
DNA 2: GGAACCCACATAATCCGCCAAGGGGTTCCGGTGCGA
Regarding B16, the binding signal in series [2] was 1490 PBM fluorescence, median of replicate spots.

B17: Table S4 A row 761 (dsDNA)
DNA 1: TTGCCGGATGAGGTTGGTTGTCTCTAATTTCCTCTC
DNA 2: GAGAGGAAATTAGAGACAACCAACCTCATCCGGCAA
Consider B17, for which the binding signal in series [1] was 764 PBM fluorescence, median of replicate spots.

B18: Table S2 A row 988 (dsDNA)
DNA 1: TCATGCTGCTTCCTGCCCAACCCGCAGTTCCGATAA
DNA 2: TTATCGGAACTGCGGGTTGGGCAGGAAGCAGCATGA
Turning to B18, in series [2], the binding signal was 1730 PBM fluorescence, median of replicate spots.

B19: Table S2 A row 769 (dsDNA)
DNA 1: CAAGCCAACATCCTGACAGTTTAGAAACCACAGGAG
DNA 2: CTCCTGTGGTTTCTAAACTGTCAGGATGTTGGCTTG
Regarding B19, the binding signal in series [2] was 1670 PBM fluorescence, median of replicate spots.

B20: Table S4 A row 493 (dsDNA)
DNA 1: TGGTAAACGGAAGAGACCTCTCCTGTTCCGGGAGTA
DNA 2: TACTCCCGGAACAGGAGAGGTCTCTTCCGTTTACCA
On to B20, for which the binding signal in series [1] was 743 PBM fluorescence, median of replicate spots.

B21: Table S2 A row 1288 (dsDNA)
DNA 1: TCTCTATGGTTTCCGTTGGGTGTGTGGTTTTTTTGT
DNA 2: ACAAAAAAACCACACACCCAACGGAAACCATAGAGA
Consider B21, for which the binding signal in series [2] was 1410 PBM fluorescence, median of replicate spots.

B22: Table S2 A row 1444 (dsDNA)
DNA 1: TGCTTAGCGGGAAGTGCTTACACCACAAAACAAGAC
DNA 2: GTCTTGTTTTGTGGTGTAAGCACTTCCCGCTAAGCA
B22: in series [2], the binding signal was 1280 PBM fluorescence, median of replicate spots.

B23: Table S4 A row 1783 (dsDNA)
DNA 1: ACCCCGGATGGCACCGCGAGTCCCCGTTTCCGACAA
DNA 2: TTGTCGGAAACGGGGACTCGCGGTGCCATCCGGGGT
As for B23, the binding signal in series [1] was 645 PBM fluorescence, median of replicate spots.

B24: Table S2 A row 1201 (dsDNA)
DNA 1: GTTGAGTTCCGGGGGAGGTTGAGTTCCTGCGGTCAA
DNA 2: TTGACCGCAGGAACTCAACCTCCCCCGGAACTCAAC
Take B24: the binding signal in series [2] was 1630 PBM fluorescence, median of replicate spots.

B25: Table S2 A row 1000 (dsDNA)
DNA 1: CCCATTTCCTGCTCTCCAGAGTTAACCACTGAAGTC
DNA 2: GACTTCAGTGGTTAACTCTGGAGAGCAGGAAATGGG
Turning to B25, the binding signal in series [2] was 1350 PBM fluorescence, median of replicate spots.

B26: Table S2 A row 672 (dsDNA)
DNA 1: ATGTGCCCAAAGGATGTCACCGCAAAGATCATAGGA
DNA 2: TCCTATGATCTTTGCGGTGACATCCTTTGGGCACAT
On to B26, for which the binding signal in series [2] is 1400 PBM fluorescence, median of replicate spots.

B27: Table S2 A row 1411 (dsDNA)
DNA 1: GAGGGGGAGGTTTCCGGGGCCTGTGGTTACTACACT
DNA 2: AGTGTAGTAACCACAGGCCCCGGAAACCTCCCCCTC
Turning to B27, in series [2], the binding signal was 1620 PBM fluorescence, median of replicate spots.

B28: Table S4 A row 1107 (dsDNA)
DNA 1: ACGGCCACCAGGAGGAAACTTCCTCTGAATCTTCCA
DNA 2: TGGAAGATTCAGAGGAAGTTTCCTCCTGGTGGCCGT
As for B28, the binding signal in series [1] is 872 PBM fluorescence, median of replicate spots.

B29: Table S2 A row 127 (dsDNA)
DNA 1: CAAGCCAGGAAGAGGGCCCTCACCAGAAACCGCACT
DNA 2: AGTGCGGTTTCTGGTGAGGGCCCTCTTCCTGGCTTG
As to B29, the binding signal in series [2] was 1640 PBM fluorescence, median of replicate spots.

B30: Table S2 A row 465 (dsDNA)
DNA 1: TGAGGGGCTCGCCGGGAAATGTGGTTTAGCGGCCCT
DNA 2: AGGGCCGCTAAACCACATTTCCCGGCGAGCCCCTCA
Consider B30, for which the binding signal in series [2] was 1230 PBM fluorescence, median of replicate spots.

B31: Table S4 A row 2621 (dsDNA)
DNA 1: TGGAGCCGGGGGAAGTGGGAGCATCCGCAGCCCCGC
DNA 2: GCGGGGCTGCGGATGCTCCCACTTCCCCCGGCTCCA
Consider B31, for which the binding signal in series [1] is 698 PBM fluorescence, median of replicate spots.

B32: Table S2 A row 337 (dsDNA)
DNA 1: ATAGTCTCTTCCTGTGTTGCAAACCACAGGTCCACC
DNA 2: GGTGGACCTGTGGTTTGCAACACAGGAAGAGACTAT
With B32, the binding signal in series [2] is 1690 PBM fluorescence, median of replicate spots.

B33: Table S4 A row 1105 (dsDNA)
DNA 1: GCCAGAGGGGCGGAAGAACCCGGAAGACCCAGGCAG
DNA 2: CTGCCTGGGTCTTCCGGGTTCTTCCGCCCCTCTGGC
For B33, the binding signal in series [1] is 832 PBM fluorescence, median of replicate spots.

B34: Table S4 A row 1346 (dsDNA)
DNA 1: TTCCCAGGAAGCCCCAAAGCCCTGGCTTCCGCCCAA
DNA 2: TTGGGCGGAAGCCAGGGCTTTGGGGCTTCCTGGGAA
As to B34, the binding signal in series [1] was 774 PBM fluorescence, median of replicate spots.

B35: Table S2 A row 1529 (dsDNA)
DNA 1: GGTGCCTGGGGAGGATGTGGGCTGACTGGGAGGGGT
DNA 2: ACCCCTCCCAGTCAGCCCACATCCTCCCCAGGCACC
Consider B35, for which the binding signal in series [2] is 1520 PBM fluorescence, median of replicate spots.

B36: Table S4 A row 273 (dsDNA)
DNA 1: TAATACAACTGGGGAAGTCACTTCCTTGCTGAGCTT
DNA 2: AAGCTCAGCAAGGAAGTGACTTCCCCAGTTGTATTA
On to B36, for which, in series [1], the binding signal was 849 PBM fluorescence, median of replicate spots.

B37: Table S2 A row 308 (dsDNA)
DNA 1: GCCGCTGCCTCTTCCTGTGTGGTTTTTCAGGGCTTA
DNA 2: TAAGCCCTGAAAAACCACACAGGAAGAGGCAGCGGC
With B37, the binding signal in series [2] was 1610 PBM fluorescence, median of replicate spots.

B38: Table S2 A row 1056 (dsDNA)
DNA 1: GGGTCTCCAGGAAGCCACTCACCACAAACTTTGACA
DNA 2: TGTCAAAGTTTGTGGTGAGTGGCTTCCTGGAGACCC
For B38, in series [2], the binding signal is 1560 PBM fluorescence, median of replicate spots.
